B1: CCDC6 (parent)
chain: TLFKKIQALQKEKETLAVNYEKEE

Variants of: B1
Assay: protein stability index of a GFP-peptide fusion (GPS, HEK-293T) (PSI 1-6); higher = more stable
Settings: c terminus: a fixed tail appended
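Also: lentivirally expressed fusions sorted by FACS into six bins by GFP to DsRed ratio, PSI derived from sequencing read proportions per bin multiplied by bin number.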

Variant | protein stability index
TLFKKYQALQKEKETLAVNYEKEE | 3.93
TLFKKIAALQKEKETLAVNYEKEE | 2.85
TLFKKICALQKEKETLAVNYEKEE | 2.73
TLFKKIDALQKEKETLAVNYEKEE | 4.38
TLFKKIEALQKEKETLAVNYEKEE | 3.57
TLFKKIFALQKEKETLAVNYEKEE | 2.3
TLFKKIGALQKEKETLAVNYEKEE | 3.51
TLFKKIHALQKEKETLAVNYEKEE | 3.18
TLFKKIIALQKEKETLAVNYEKEE | 2.6
TLFKKIKALQKEKETLAVNYEKEE | 3.31
TLFKKILALQKEKETLAVNYEKEE | 2.71
TLFKKIMALQKEKETLAVNYEKEE | 2.73
TLFKKINALQKEKETLAVNYEKEE | 4.02
TLFKKIPALQKEKETLAVNYEKEE | 4.7
TLFKKIRALQKEKETLAVNYEKEE | 2.98
TLFKKISALQKEKETLAVNYEKEE | 3.65
TLFKKITALQKEKETLAVNYEKEE | 3.54
TLFKKIVALQKEKETLAVNYEKEE | 2.7
TLFKKIWALQKEKETLAVNYEKEE | 1.99
TLFKKIYALQKEKETLAVNYEKEE | 2.55
TLFKKIQCLQKEKETLAVNYEKEE | 3.15
TLFKKIQDLQKEKETLAVNYEKEE | 3.51
TLFKKIQELQKEKETLAVNYEKEE | 4.05
TLFKKIQFLQKEKETLAVNYEKEE | 3.54

Variant | protein stability index
TLFKKIQGLQKEKETLAVNYEKEE | 3.72
TLFKKIQHLQKEKETLAVNYEKEE | 3.25
TLFKKIQILQKEKETLAVNYEKEE | 3.4
TLFKKIQKLQKEKETLAVNYEKEE | 3.88
TLFKKIQLLQKEKETLAVNYEKEE | 3.4
TLFKKIQMLQKEKETLAVNYEKEE | 2.69
TLFKKIQNLQKEKETLAVNYEKEE | 3.75
TLFKKIQPLQKEKETLAVNYEKEE | 4.25
TLFKKIQQLQKEKETLAVNYEKEE | 3.23
TLFKKIQRLQKEKETLAVNYEKEE | 3.38
TLFKKIQSLQKEKETLAVNYEKEE | 3.47
TLFKKIQTLQKEKETLAVNYEKEE | 3.49
TLFKKIQVLQKEKETLAVNYEKEE | 4.34
TLFKKIQWLQKEKETLAVNYEKEE | 2.75
TLFKKIQYLQKEKETLAVNYEKEE | 2.75
TLFKKIQAAQKEKETLAVNYEKEE | 3.92
TLFKKIQACQKEKETLAVNYEKEE | 4.33
TLFKKIQADQKEKETLAVNYEKEE | 4.67
TLFKKIQAEQKEKETLAVNYEKEE | 4.37
TLFKKIQAFQKEKETLAVNYEKEE | 3.46
TLFKKIQAGQKEKETLAVNYEKEE | 3.92
TLFKKIQAHQKEKETLAVNYEKEE | 3.88
TLFKKIQAIQKEKETLAVNYEKEE | 3.57
TLFKKIQAKQKEKETLAVNYEKEE | 4.35

Variant | protein stability index
TLFKKIQAMQKEKETLAVNYEKEE | 2.74
TLFKKIQANQKEKETLAVNYEKEE | 4.55
TLFKKIQAPQKEKETLAVNYEKEE | 5.08
TLFKKIQAQQKEKETLAVNYEKEE | 4.48
TLFKKIQARQKEKETLAVNYEKEE | 4.25
TLFKKIQASQKEKETLAVNYEKEE | 4.05
TLFKKIQATQKEKETLAVNYEKEE | 4.6
TLFKKIQAVQKEKETLAVNYEKEE | 4.22
TLFKKIQAWQKEKETLAVNYEKEE | 3.5
TLFKKIQAYQKEKETLAVNYEKEE | 3.23
TLFKKIQALAKEKETLAVNYEKEE | 3.17
TLFKKIQALCKEKETLAVNYEKEE | 3.17
TLFKKIQALDKEKETLAVNYEKEE | 4.41
TLFKKIQALEKEKETLAVNYEKEE | 4.41
TLFKKIQALFKEKETLAVNYEKEE | 2.2
TLFKKIQALGKEKETLAVNYEKEE | 3.89
TLFKKIQALHKEKETLAVNYEKEE | 3.3
TLFKKIQALIKEKETLAVNYEKEE | 2.35
TLFKKIQALKKEKETLAVNYEKEE | 3.08
TLFKKIQALLKEKETLAVNYEKEE | 2.45
TLFKKIQALMKEKETLAVNYEKEE | 2.42
TLFKKIQALNKEKETLAVNYEKEE | 2.89
TLFKKIQALPKEKETLAVNYEKEE | 3.99
TLFKKIQALRKEKETLAVNYEKEE | 2.64

Variant | protein stability index
TLFKKIQALSKEKETLAVNYEKEE | 3.41
TLFKKIQALTKEKETLAVNYEKEE | 3.79
TLFKKIQALVKEKETLAVNYEKEE | 2.91
TLFKKIQALWKEKETLAVNYEKEE | 2.65
TLFKKIQALYKEKETLAVNYEKEE | 2.64
TLFKKIQALQAEKETLAVNYEKEE | 3.23
TLFKKIQALQCEKETLAVNYEKEE | 3.12
TLFKKIQALQDEKETLAVNYEKEE | 3.79
TLFKKIQALQEEKETLAVNYEKEE | 3.69
TLFKKIQALQFEKETLAVNYEKEE | 2.94
TLFKKIQALQGEKETLAVNYEKEE | 3.71
TLFKKIQALQHEKETLAVNYEKEE | 3.28
TLFKKIQALQIEKETLAVNYEKEE | 2.85
TLFKKIQALQLEKETLAVNYEKEE | 3.05
TLFKKIQALQMEKETLAVNYEKEE | 2.78
TLFKKIQALQNEKETLAVNYEKEE | 3.55
TLFKKIQALQPEKETLAVNYEKEE | 4.1
TLFKKIQALQQEKETLAVNYEKEE | 3.21
TLFKKIQALQREKETLAVNYEKEE | 2.59
TLFKKIQALQSEKETLAVNYEKEE | 3.36
TLFKKIQALQTEKETLAVNYEKEE | 2.89
TLFKKIQALQVEKETLAVNYEKEE | 2.81
TLFKKIQALQWEKETLAVNYEKEE | 2.28
TLFKKIQALQYEKETLAVNYEKEE | 2.66

Variant | protein stability index
TLFKKIQALQKAKETLAVNYEKEE | 2.66
TLFKKIQALQKCKETLAVNYEKEE | 2.1
TLFKKIQALQKDKETLAVNYEKEE | 3.37
TLFKKIQALQKFKETLAVNYEKEE | 1.85
TLFKKIQALQKGKETLAVNYEKEE | 3.05
TLFKKIQALQKHKETLAVNYEKEE | 2.63
TLFKKIQALQKIKETLAVNYEKEE | 2.27
TLFKKIQALQKKKETLAVNYEKEE | 2.59
TLFKKIQALQKLKETLAVNYEKEE | 1.97
TLFKKIQALQKMKETLAVNYEKEE | 2.49
TLFKKIQALQKNKETLAVNYEKEE | 3.09
TLFKKIQALQKPKETLAVNYEKEE | 3.66
TLFKKIQALQKQKETLAVNYEKEE | 2.64
TLFKKIQALQKRKETLAVNYEKEE | 2.75
TLFKKIQALQKSKETLAVNYEKEE | 2.63
TLFKKIQALQKTKETLAVNYEKEE | 2.62
TLFKKIQALQKVKETLAVNYEKEE | 2.52
TLFKKIQALQKWKETLAVNYEKEE | 1.81
TLFKKIQALQKYKETLAVNYEKEE | 2.11
TLFKKIQALQKEAETLAVNYEKEE | 2.58
TLFKKIQALQKECETLAVNYEKEE | 2.28
TLFKKIQALQKEDETLAVNYEKEE | 3.96
TLFKKIQALQKEEETLAVNYEKEE | 3.78
TLFKKIQALQKEGETLAVNYEKEE | 3.73

Variant | protein stability index
TLFKKIQALQKEHETLAVNYEKEE | 2.81
TLFKKIQALQKEIETLAVNYEKEE | 2.2
TLFKKIQALQKELETLAVNYEKEE | 1.93
TLFKKIQALQKEMETLAVNYEKEE | 2.65
TLFKKIQALQKENETLAVNYEKEE | 3.17
TLFKKIQALQKEPETLAVNYEKEE | 3.51
TLFKKIQALQKEQETLAVNYEKEE | 3.13
TLFKKIQALQKERETLAVNYEKEE | 3.49
TLFKKIQALQKESETLAVNYEKEE | 3.23
TLFKKIQALQKETETLAVNYEKEE | 3.4
TLFKKIQALQKEVETLAVNYEKEE | 1.84
TLFKKIQALQKEWETLAVNYEKEE | 1.91
TLFKKIQALQKEYETLAVNYEKEE | 2.09
TLFKKIQALQKEKATLAVNYEKEE | 2.6
TLFKKIQALQKEKCTLAVNYEKEE | 2.89
TLFKKIQALQKEKDTLAVNYEKEE | 3.25
TLFKKIQALQKEKFTLAVNYEKEE | 2.16
TLFKKIQALQKEKGTLAVNYEKEE | 3.1
TLFKKIQALQKEKHTLAVNYEKEE | 2.58
TLFKKIQALQKEKITLAVNYEKEE | 2.25
TLFKKIQALQKEKKTLAVNYEKEE | 2.94
TLFKKIQALQKEKLTLAVNYEKEE | 1.97
TLFKKIQALQKEKMTLAVNYEKEE | 2.27
TLFKKIQALQKEKNTLAVNYEKEE | 3.15

Variant | protein stability index
TLFKKIQALQKEKPTLAVNYEKEE | 2.64
TLFKKIQALQKEKQTLAVNYEKEE | 3.11
TLFKKIQALQKEKRTLAVNYEKEE | 2.6
TLFKKIQALQKEKSTLAVNYEKEE | 2.46
TLFKKIQALQKEKTTLAVNYEKEE | 2.55
TLFKKIQALQKEKVTLAVNYEKEE | 2.6
TLFKKIQALQKEKWTLAVNYEKEE | 2.03
TLFKKIQALQKEKYTLAVNYEKEE | 2.05
TLFKKIQALQKEKEALAVNYEKEE | 2.97
TLFKKIQALQKEKECLAVNYEKEE | 2.84
TLFKKIQALQKEKEDLAVNYEKEE | 3.89
TLFKKIQALQKEKEELAVNYEKEE | 3.77
TLFKKIQALQKEKEFLAVNYEKEE | 2.06
TLFKKIQALQKEKEGLAVNYEKEE | 3.25
TLFKKIQALQKEKEHLAVNYEKEE | 2.76
TLFKKIQALQKEKEILAVNYEKEE | 3.98
TLFKKIQALQKEKEKLAVNYEKEE | 3.3
TLFKKIQALQKEKELLAVNYEKEE | 2.54
TLFKKIQALQKEKEMLAVNYEKEE | 2.85
TLFKKIQALQKEKENLAVNYEKEE | 3.23
TLFKKIQALQKEKEPLAVNYEKEE | 3.56
TLFKKIQALQKEKEQLAVNYEKEE | 2.98
TLFKKIQALQKEKERLAVNYEKEE | 2.88
TLFKKIQALQKEKESLAVNYEKEE | 2.91

Variant | protein stability index
TLFKKIQALQKEKEVLAVNYEKEE | 3.42
TLFKKIQALQKEKEWLAVNYEKEE | 1.92
TLFKKIQALQKEKEYLAVNYEKEE | 3.08
TLFKKIQALQKEKETAAVNYEKEE | 3.32
TLFKKIQALQKEKETCAVNYEKEE | 3.05
TLFKKIQALQKEKETDAVNYEKEE | 3.88
TLFKKIQALQKEKETEAVNYEKEE | 4.07
TLFKKIQALQKEKETFAVNYEKEE | 2.81
TLFKKIQALQKEKETGAVNYEKEE | 4.09
TLFKKIQALQKEKETHAVNYEKEE | 3.91
TLFKKIQALQKEKETIAVNYEKEE | 2.69
TLFKKIQALQKEKETKAVNYEKEE | 2.83
TLFKKIQALQKEKETMAVNYEKEE | 3.24
TLFKKIQALQKEKETNAVNYEKEE | 3.6
TLFKKIQALQKEKETPAVNYEKEE | 3.44
TLFKKIQALQKEKETQAVNYEKEE | 4.1
TLFKKIQALQKEKETRAVNYEKEE | 3.02
TLFKKIQALQKEKETSAVNYEKEE | 4.02
TLFKKIQALQKEKETTAVNYEKEE | 3.49
TLFKKIQALQKEKETVAVNYEKEE | 3.23
